From PMC6349032

Biological target: GD-FXaS195A (Gla-domainless factor Xa, catalytically inactive) (UniProt P00742;P00742 85-179;235-488, S419A)
Test: X-ray crystallography

Sequence of GD-FXaS195A (Gla-domainless factor Xa, catalytically inactive) (P00742 85-179, chain 1 of 2): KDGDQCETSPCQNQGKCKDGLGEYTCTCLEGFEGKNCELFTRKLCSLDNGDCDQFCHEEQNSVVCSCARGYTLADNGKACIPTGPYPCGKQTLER
Sequence of GD-FXaS195A (Gla-domainless factor Xa, catalytically inactive) (P00742 235-488 S419A, chain 2 of 2): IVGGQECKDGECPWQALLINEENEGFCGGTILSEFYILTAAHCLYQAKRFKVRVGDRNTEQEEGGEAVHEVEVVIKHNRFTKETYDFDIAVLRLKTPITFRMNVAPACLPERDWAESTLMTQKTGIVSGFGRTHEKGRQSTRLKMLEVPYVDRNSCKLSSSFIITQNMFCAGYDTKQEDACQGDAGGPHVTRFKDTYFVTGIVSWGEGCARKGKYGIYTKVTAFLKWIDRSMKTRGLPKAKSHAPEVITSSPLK

Binder: GAGAGCCCCAGCGAGAUAAUACUUGGCCCCGCUCUU (structured_RNA, all C are 2'-fluoro-C and all U are 2'-fluoro-U; purines A/G as ribonucleotides) [11F7t]
- binding result: binds
